According to paper PMC6812618 (Journal of biological inorganic chemistry : JBIC : a …, 2019):
Values joined by “and” are separate entries in the source; they are usually repeats but may differ in a detail not shown here. Identical values can stand only once.

Biological target: the molecule itself
Experiment: AUC

B1: human BOLA3 (natural protein, UniProt Q53S33 25-107, looked up)
chain: MFATQTEGELRVTQILKEKFPRATAIKVTDISGGCGAMYEIKIESEEFKEKRTVQQHQMVNQALKEEIKEMHGLRIFTSVPKR
Question: How did the “stoichiometry N” value turn out when B1 was run?
Answer: Its value is 2 and 4.
